B1: TCR R10P1A7 (TCR, V domains shown)
V domain 1: GEDVEQSLFLSVREGDSSVINCTYTDSSSTYLYWYKQEPGAGLQLLTYIFSNMDMKQDQRLTVLLNKKDKHLSLRIADTQTGDSAIYFCAESKETRLMFGDGTQLVVKP
V domain 2: GAVVSQHPSWVICKSGTSVKIECRSLDFQATTMFWYRQFPKQSLMLMATSNEGSKATYEQGVEKDKFLINHASLTLSTLTVTSAHPEDSSFYICSARAGGHEQFFGPGTRLTVLE
B2: TCR R10P1A7 expressed from lentiviral construct 1864R (MSCV-R10P1A7B-2A-R10P1A7A-WPRE) (TCR, V domains shown)
V domain 1: B1 V domain 1
V domain 2: B1 V domain 2
B3: TCR R10P1A7 expressed from lentiviral construct 1863R (MSCV-R10P1A7A-2A-R10P1A7B-WPRE) (TCR, V domains shown)
V domain 1: B1 V domain 1
V domain 2: B1 V domain 2

What was measured:
[1] = target: MHC/IGF2BP3-001 tetramer (human); assay: tetramer staining, flow cytometry of RNA-electroporated CD8+ T-cells
MHC/NYESO1-001 tetramer = assay: tetramer staining, flow cytometry of RNA-electroporated CD8+ T-cells (unrelated-peptide tetramer)
[2] = target: MHC/IGF2BP3-001 tetramer (human); assay: tetramer binding by flow cytometry, lentivirally transduced primary T-cells, donor 2
[3] = target: MHC/IGF2BP3-001 tetramer (human); assay: tetramer binding by flow cytometry, lentivirally transduced primary T-cells, donor 1

Binder | % IGF2BP3-001 TET-positive primary CD8+ T-cells [1] [%] | % NYESO1-001 TET-positive primary CD8+ T-cells (MHC/NYESO1-001 tetramer) [%] | % of CD3+ Tet+ [2] [%] | % of CD8+ Tet+ [2] [%] | % of CD3+ Tet+ [3] [%] | % of CD8+ Tet+ [3] [%]
B1 | 6.78 | 1.53 |  |  |  | 
B2 |  |  | 8.12 | 11.7 | 15.2 | 22
B3 |  |  | 0.99 | 1.79 | 2.3 | 3.93

Reference: patent US20170312350A1
